According to publication PMC11232276:

Tests used:
[1] = target: α-synuclein oligomers (human); test: flow-induced dispersion analysis
[2] = target: wildtype (WT) α-synuclein fibrils (human) (UniProt P37840); test: flow-induced dispersion analysis
[3] = target: wildtype (WT) α-synuclein fibrils (human) (UniProt P37840); test: native gel or EMSA
[4] = target: wildtype (WT) α-synuclein fibrils (human) (UniProt P37840); test: SPR

| Kd [1] [nM] | Kd [2] [nM] | percent of soluble, unbound BRICHOS [3] [%] | apparent KD, strong binding of the two-phase model [4] [nM] | apparent KD, weak binding of the two-phase model [4] [nM] | Substance |
| --- | --- | --- | --- | --- | --- |
| 78.2 | 2300 |  |  |  | BRICHOS-Alexa488 (rh Bri2 BRICHOS R221E labelled with Alexa-488) (from UniProt Q9Y287 113-231) (domain or fragment) |
|  |  | 90.6 | 22 | 350000 | recombinant human (rh) Bri2 BRICHOS R221E monomer (from UniProt Q9Y287 113-231) (domain or fragment) |
